Target: gramicidin A (Bacillus brevis)
Test: single-channel electrophysiology

Question: gramicidin A (peptide) was tested. Which channel (dimer) lifetime did it give?
Answer: The channel (dimer) lifetime was less than 3 ms.

Source: PMC5599369
